{"source": "the nanobody polyreactivity screen of Harvey et al. (2022)"}
{"experiment": "yeast display, Sf9 membrane polyspecificity reagent, FACS + sequencing; frameworks hold sequencing errors", "procedure,_shortened": "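A nanobody's polyreactivity label depends on the gate it was sorted from. Yeast display cells were stained with 10% biotinylated, detergent-solubilized Sf9 membrane reagent for 1 hour at 4 °C, enriched on streptavidin microbeads and sorted by FACS. The low and high (top ~1%) gates were set on anti-HA fluorescence for expression and streptavidin fluorescence for reagent binding.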"}
{"sequence": "QVQLQQSVGGLVQAGGSLRLSCAASGNIFPTDRMGWYRQAPGKELEFVATISHGGRTNYADSVKGRFTISRDNATNTVYLQMNRLKPEDTAVYFCAVWSLGRWRHYYWGQGSQVTVSS", "polyreactivity (PSR sort gate)": "low polyreactivity"}
{"sequence": "QVQLQVSGGGLVQAGGSLRLSCAASGSIFLTSEMGWYRQAPGKERELVAAIATGTSTNYADSVKGRFTISRDNAKNTVYLQMNSLKPEDTAVYYCATYHYWGQGTQVTVSS", "polyreactivity (PSR sort gate)": "low polyreactivity"}
{"sequence": "QVQLRESGGGLVQAGGSLLSCAASATISYYREMGWYRQAPGNERELVAGIGVGTITYYADSVKGRFTISRDNAKNTVYLQMNSLKPEDTAVYYCAAHIEGNDSHAYWGQGTQVTVSS", "polyreactivity (PSR sort gate)": "low polyreactivity"}
{"sequence": "QVQLVASGGGLVQAGGSLRLSCAASGRNFRSYVMGWYRQAPGKERDLVATITRSGGGTTYADSVKGRFTISRDNAKNTVYLHMKSLKAEDTAVYYCNAERRYSWYSQGDYWGQGTQVTVSS", "polyreactivity (PSR sort gate)": "high polyreactivity"}
{"sequence": "QVQLVASGGGLVQSGGSLRLSCAASGFIFAYYAMGWYRQAPGTERELVAAISRGGRPYYADSVKGRFTISRDNAKNTVYFQMNSLKPEDTAVYYCAARRWRRYQSGGSYSGMDHWGQGTQVTVSS", "polyreactivity (PSR sort gate)": "high polyreactivity"}
{"sequence": "QVQLVDSAAALVQAGGSQRLTCAASGLIFYYSVMGSYRQAPGKERELVARISTSGGSTYYADSVKGRFTISRDNAKNTVYIQMNSLKPEDTAVYYCAARGYRQYGWDCYCGQGTQVTVSS", "polyreactivity (PSR sort gate)": "low polyreactivity"}
{"sequence": "QVQLVDSAGGLVQAGGSLRLSCDDSGRTFWYYTMGWYRQAPGKEREFLAAIRGSGTSTYYADSVKARYTISRDNAKNTVYFQMNSLKPEDTADYYCAAESPVYHLVTYDYWGQGTQVTVSS", "polyreactivity (PSR sort gate)": "high polyreactivity"}
{"sequence": "QVQLVDSCGGLVQAGGSLRLSCAASGSISYYYAMGWYRQAPGKERELVAAITRTGTTNYADSVKWRFTISRDNAKNTVFLQMNSLKPEDTAVYYCAKRSTGRLQSYNYWGQGTQVTVSS", "polyreactivity (PSR sort gate)": "low polyreactivity"}
{"sequence": "QVQLVDSGAGLVQAGGSLRISCAATGSTFPRYGMGWYRQAPGKERQMVAAISSGGRTNYADSVKGRFTISRDNAKNTVYLQMNSLKPEDTAVYYCAARIPYYFSYYFYSGMDYWGQGTQVTVSS", "polyreactivity (PSR sort gate)": "high polyreactivity"}
{"sequence": "QVQLVDSGAGLVQAGGSLRISCVPPDSTTQSKLGDRIHRRLGKKVTWLPVLTSRGVGSYYADSVKGRFTISRDNAKNTVYLQMNSLIPEDTAVYYCNARYEVFYRYDYWGQGTQVSVSS", "polyreactivity (PSR sort gate)": "low polyreactivity"}
{"sequence": "QVQLVDSGAGLVQAGGSLRLSCDASGSTFRGYAMGWYRQSPWKERELVAAITYISDSTYYADSVKGRFTISRDNAKNTVFLQMISLNPEDTAVYYCNAYYDGDWRYTSQVTGDLWGQGTQVTVSS", "polyreactivity (PSR sort gate)": "low polyreactivity"}
{"sequence": "QVQLVDSGGCLVQAGGSLRLSCDASGRISQNAMGWYRQAPGKERELVAAITFSGGSTYYADSVKGRFTISRDNAKNTVYLQMNSLKPEDTAVYYCNVRQYTDGLKYDYWGQGTQVTVSS", "polyreactivity (PSR sort gate)": "low polyreactivity"}
{"sequence": "QVQLVDSGGDLVKAGGSLRLSCDASGSTFRDYDMGWYRQAPGKERELVDAITGSGSSTYYADSVKGRFTISRDNAKNTVYLQMNSLKPEDTAVYYCAATWVVSYRVYRSYYWGQGTQVTVSS", "polyreactivity (PSR sort gate)": "low polyreactivity"}
{"sequence": "QVQLVDSGGGFVQAGGSLRLSCAASGSILAQKAMGWYRQAPGKERELVAAISWSGGRTYYADSVKGRFTISLDNAKNYVYLQMNCLKPEDTAVYYCNKVRRASTVHPDNYWGQGTQVTVSS", "polyreactivity (PSR sort gate)": "high polyreactivity"}
{"sequence": "QVQLVDSGGGLDQAGGSLRLSCASSGSSSNTMLWDGKDRRLGKKGSWSSTNYADSVKGRFTISRDNAKNTVYLQMNSLKPEDTAVYYCNAYHDYITEFNYWGQGTQVTVSS", "polyreactivity (PSR sort gate)": "low polyreactivity"}
{"sequence": "QVQLVDSGGGLVDAGGRLRLSCAASGRTFYAYPMGGYRQAPRTERELVAAITKRDGITFYADSVKGRFTISRDNAKNTVYLQMKSLKPEDTAVDYCDATGYVGGIYGHYPRGYWGQCTQVTVSS", "polyreactivity (PSR sort gate)": "high polyreactivity"}
{"sequence": "QVQLVDSGGGLVHAGGRLGLSREDYGSTFPYYSMGWYRQAPGKERELVAAISGGGGSTYYADSVKGRFTISRDNAKNTVYLQMNSLKPEDSAVYYCNAYKYISPGDYWGQGTQVTVSS", "polyreactivity (PSR sort gate)": "high polyreactivity"}
{"sequence": "QVQLVDSGGGLVKAGGSLRISCPASGITLKYYSMGWYRPSPGKERELVAAITRSGVGTYYADSVKGRFTISRDNAKNTVYLQMNSLKPEDTAVYYCAARGGWLQTKYDYWGQGTQVTVSS", "polyreactivity (PSR sort gate)": "high polyreactivity"}
{"sequence": "QVQLVDSGGGLVQAAGSLRLSCAASGSIFIFNTMGWYRQAPGKESELVASISSSGSTYYADSVKGRFTISRDNAKNTVYLQMKSLKPEDTAVYYCAATYYRPAYYGSYYYWGQGTQVTVSS", "polyreactivity (PSR sort gate)": "low polyreactivity"}
{"sequence": "QVQLVDSGGGLVQAGASLRLSCAASGSTFSSNVMGWYRQAPGKERELVAAITKTGGLTYYADSVKGRFTISRDNAKNTVYLNMNSLKPEDTSVYYCAAKSKRRGTTSVYYYWGQGTQVTVSS", "polyreactivity (PSR sort gate)": "high polyreactivity"}
{"sequence": "QVQLVDSGGGLVQAGGILRLSCASSGITFPGYDMGWYRQAPGKERDLVARISRSGGSTYYADSVKGRFTISRDNAKNTVYLQMNSLKPEETAVYYCAAGAYRSGGYRFDYWGQGTQVTVSS", "polyreactivity (PSR sort gate)": "low polyreactivity"}
{"sequence": "QVQLVDSGGGLVQAGGNLRLSCAPSGYTFGKYAMGWYRQAPGKERELVAGISSRGGSTYYADSVKGRFTISRDNAKNTVYFQMNSLKPEDTAVYYCAAVAYTGGPRKLGFYYWGQGTQVTVSS", "polyreactivity (PSR sort gate)": "high polyreactivity"}
{"sequence": "QVQLVDSGGGLVQAGGRLRLSCAASGLIFSYYARGRYRQGPRKERELVPAISSGGRTSYADSVKGRFTISRDNEKNTVYLKMNSVKPEASAVYYCAAYPVYNRPGDYWGQGTQVTVSS", "polyreactivity (PSR sort gate)": "high polyreactivity"}
{"sequence": "QVQLVDSGGGLVQAGGRLRLSRAASGSIFRRYPMGWYRQAPGKERELVAAISRNSGRTYYADSVKGRFTISRDNAKITDYLQMNSLKPEDTAVYYCNADTSLAANGKFDYWGQGTQGTVSS", "polyreactivity (PSR sort gate)": "high polyreactivity"}
{"sequence": "QVQLVDSGGGLVQAGGSISLSCAPSGFTIVGNAMGWYRLAPGKERELVAAISSGDDTNDADSVKGRFTISRDNAKNTVYLQMYSLKPEDTAVYYCAAAYYYYVSGWFDYWGQGTQVTVSS", "polyreactivity (PSR sort gate)": "low polyreactivity"}
{"sequence": "QVQLVDSGGGLVQAGGSLRIIRAASGSISGYNAMGWYRQAPGKERELVAAIYRSDGKDYADSVKGRFTISRDNAKNTVYLQMNSMIPEDTAVYYCIAVKWSVVGYVLGFYRDDYWGQGTQVTVSS", "polyreactivity (PSR sort gate)": "low polyreactivity"}
{"sequence": "QVQLVDSGGGLVQAGGSLRISCAASGSTFSINTMGTYRQAPGKERELVAAITTRGSSTYYADSVKGRFTISRDNAKNTVYLKMNSLKPEDTAVYYFNAPYRVTGGRYRWYDYWGQATQVTVSS", "polyreactivity (PSR sort gate)": "high polyreactivity"}
{"sequence": "QVQLVDSGGGLVQAGGSLRISCPASGRIIDLNARGWYRQAPGKERELVAAISYSGGRTFYADSVKGRFTISRDNAKNTVDLQMISLKPEVTAVYYCNVRRGDRFVRHDYWGQGSQVTVSS", "polyreactivity (PSR sort gate)": "low polyreactivity"}
{"sequence": "QVQLVDSGGGLVQAGGSLRLICAASGITFYYYAMGWYRQAPGKERELVAAISSRGGSTYYADSVKGRFTISRDNAKNTVYLQMNSLKPEDTAVYYWAALYGVSEEDDYWGQGTQVTVSS", "polyreactivity (PSR sort gate)": "high polyreactivity"}
{"sequence": "QVQLVDSGGGLVQAGGSLRLICAASGRTIDNYAMGWYRQAPGKERELVAVISRSGDRRYYPDSEKGRFTISRDNAKNTVYLPMKSLKPEDTAVYYCNAVYGRSIYDGLFYTYDYWGQCTQVTVSS", "polyreactivity (PSR sort gate)": "high polyreactivity"}
{"sequence": "QVQLVDSGGGLVQAGGSLRLICAASGSIFGKNAMGWYRQAPGKERELVAAISKRGGTTYYADSVKGRFTISRDNAKNTFYLLMNSLKPEDTAVYYCAAYYYVHRSSHYLSPYDFWGQVTQVTVSS", "polyreactivity (PSR sort gate)": "high polyreactivity"}
{"sequence": "QVQLVDSGGGLVQAGGSLRLRCAASGITYSYYTKGWYRQAPGKERDLVAGITRSGSTYYADSVKGRFTISRDNAYNTVYLQMNSLKPEDTAVYYCNARARGAYNRPNYPRYYYWGQGTQVTVSS", "polyreactivity (PSR sort gate)": "high polyreactivity"}
{"sequence": "QVQLVDSGGGLVQAGGSLRLRCAASGRNFGTNAMGWYRPAPGKERELVATITRGGGNTYYADSVKGRFTISRDNAKNTVYLQMNSLKPEDTAVYYCAAGVIFYVGTRVYAYDYWGQGTQLTVSS", "polyreactivity (PSR sort gate)": "low polyreactivity"}
{"sequence": "QVQLVDSGGGLVQAGGSLRLRSAASGFTFCTYDMGWYRQAPGKERELVAAIDSGGSTYYADSVKGRFTISRDNAKNNVYLQMNSLKPEDTAVYYCNKVVDYFWYVEYDYWGQVTQVTVSS", "polyreactivity (PSR sort gate)": "low polyreactivity"}
{"sequence": "QVQLVDSGGGLVQAGGSLRLSCAASGFIFSDYAMGWYRQAPGKEREFVAAISSGGSTYYADSVKGRFTISRDNAKNTVYLQMNSLKPEDTAVYYCNALWYREMDYWGQGTQVTVSS", "polyreactivity (PSR sort gate)": "high polyreactivity"}
{"sequence": "QVQLVDSGGGLVQAGGSLRLSCAASGFIFVDYVMGWSRQAPGKERELVAAITRGGSTNYADSVKGRFTISRDNAKNTVYLQMNSLKPEDTAVYYCAVRWYRKYNYWGQGTQVTVSS", "polyreactivity (PSR sort gate)": "high polyreactivity"}
{"sequence": "QVQLVDSGGGLVQAGGSLRLSCAASGFTFYAYGRGWNRQAPGKERELVATITWCGGNTYYADSVKGRFTISRDNAKNTVYLQMNSLKPEDTAVYYCAARLPSPIRPSRGYYDYWGQGTQVTVSS", "polyreactivity (PSR sort gate)": "low polyreactivity"}
{"sequence": "QVQLVDSGGGLVQAGGSLRLSCAASGFTSTRYSMGWYREAPGKERELVAAISYGGGDTYYADSVKGRFTISRDNPKNTVYLQMNSLKPEDTAVYYCNARGRDRKSERRAFDYWGQGTQVTVSS", "polyreactivity (PSR sort gate)": "high polyreactivity"}
{"sequence": "QVQLVDSGGGLVQAGGSLRLSCAASGGTFTAYTMGWYRQAPGKERELVAAITGDTSTNYADSVKGRFTISRDNAKNTVYLQMNSLKPVDTAVYYCAADVPRSYWRGYDYWGQGTQVTVSS", "polyreactivity (PSR sort gate)": "low polyreactivity"}
{"sequence": "QVQLVDSGGGLVQAGGSLRLSCAASGINFQGNAMGWYRQAPGKERELVASITAGGDTTYYADSVKGRFTISRDNAKNTVYLQMNSLKPEDTAVYYCAVDSWLDADDSYPDSILVDYWGQGTQVTVSS", "polyreactivity (PSR sort gate)": "low polyreactivity"}
{"sequence": "QVQLVDSGGGLVQAGGSLRLSCAASGITFYRYTMGWYRQGPGKERELVATITSGASTSYADSVKGRFTISRDNAKNTVYLQMNCLKPEDTAVYYCAARRTRVTGRYSVYAFDYWGQGTQVTVSS", "polyreactivity (PSR sort gate)": "low polyreactivity"}
